{"source": "paper PMC11814294", "about": "“A pathogen effector HaRxL10 hijacks the circadian clock component CHE to perturb both plant development and immunity”", "molecular_target": "GST-CHE (Arabidopsis thaliana, UniProt Q9FTA2 1-239)", "sequence (Q9FTA2 whole entry)": "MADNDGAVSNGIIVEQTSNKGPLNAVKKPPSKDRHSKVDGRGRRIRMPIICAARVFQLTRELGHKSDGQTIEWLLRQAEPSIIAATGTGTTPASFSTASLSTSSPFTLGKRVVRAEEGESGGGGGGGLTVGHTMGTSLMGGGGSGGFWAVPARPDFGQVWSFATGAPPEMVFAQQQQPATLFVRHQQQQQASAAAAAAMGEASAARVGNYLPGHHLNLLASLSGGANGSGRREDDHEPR", "test": "EMSA; 5 pmol protein, 50 fmol probe; no HaRxL10; LightShift Chemiluminescent EMSA Kit per manufacturer; 5 pmol protein, 50 fmol biotin probe, 200-fold unlabelled competitor; probes annealed in 10 mM Tris, 1 mM Na2EDTA, 50 mM NaCl; binding buffer, pH and temperature not stated", "conditions": "protein: recombinant; tags: GST (pET-42a); chain copies: 2; label: 5'-biotin; blunt"}
{"binder": "TBS probe (dsDNA) DNA 1: GTAGGTCCCACTAGGTAGGTCCCACTAGGTAGGTCCCACTAGGTAGGTCCCACTAGGTAGGTCCCACTAG DNA 2: CTAGTGGGACCTACCTAGTGGGACCTACCTAGTGGGACCTACCTAGTGGGACCTACCTAGTGGGACCTAC", "values": [{"measurement": "binding result", "result": "binds"}]}
